{"source": "paper PMC3413154", "binders": {"B1": {"name": "26-mer nicked dsRNA (dsRNA)", "RNA 1": "AUGAGACGUAGGUU", "RNA 2": "UUAUCGGAGUUC", "RNA 3": "GAACUCCGAUAAAACCUACGUCUCAU"}}, "assay_in_all_cases": "EMSA", "key": {"L2 NTase domain": {"target": "T1, L2 NTase domain (Trypanosoma brucei, UniProt P86925 21-285)", "T1 sequence": "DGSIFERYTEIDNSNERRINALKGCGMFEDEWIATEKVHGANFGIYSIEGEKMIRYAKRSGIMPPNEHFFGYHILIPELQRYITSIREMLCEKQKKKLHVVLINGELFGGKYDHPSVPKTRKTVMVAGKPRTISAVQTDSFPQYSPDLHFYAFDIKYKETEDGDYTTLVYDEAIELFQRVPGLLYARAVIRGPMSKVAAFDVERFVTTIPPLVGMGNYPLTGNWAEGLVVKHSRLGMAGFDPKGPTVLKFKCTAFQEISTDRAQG"}, "[1]": {"target": "T2, A1 R734E;L2 RNA-editing ligase (full length, mature) (Trypanosoma brucei;Trypanosoma brucei, UniProt Q95W15;P86925 196-762;21-416, R734E|)", "T2 sequence 1": "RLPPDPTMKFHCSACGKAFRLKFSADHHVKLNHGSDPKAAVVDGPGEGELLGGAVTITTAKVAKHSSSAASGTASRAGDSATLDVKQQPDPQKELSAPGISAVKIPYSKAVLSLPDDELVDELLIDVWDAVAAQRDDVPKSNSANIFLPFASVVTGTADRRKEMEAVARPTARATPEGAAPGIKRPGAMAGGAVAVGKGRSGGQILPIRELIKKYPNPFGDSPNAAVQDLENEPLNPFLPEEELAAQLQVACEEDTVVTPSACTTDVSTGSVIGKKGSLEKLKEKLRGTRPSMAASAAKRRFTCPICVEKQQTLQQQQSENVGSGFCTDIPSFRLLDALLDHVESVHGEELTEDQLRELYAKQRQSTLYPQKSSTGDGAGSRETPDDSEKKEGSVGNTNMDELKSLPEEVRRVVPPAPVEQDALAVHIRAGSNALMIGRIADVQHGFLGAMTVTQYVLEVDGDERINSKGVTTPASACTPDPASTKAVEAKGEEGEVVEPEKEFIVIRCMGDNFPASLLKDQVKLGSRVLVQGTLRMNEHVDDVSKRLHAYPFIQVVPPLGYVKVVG", "T2 sequence 2": "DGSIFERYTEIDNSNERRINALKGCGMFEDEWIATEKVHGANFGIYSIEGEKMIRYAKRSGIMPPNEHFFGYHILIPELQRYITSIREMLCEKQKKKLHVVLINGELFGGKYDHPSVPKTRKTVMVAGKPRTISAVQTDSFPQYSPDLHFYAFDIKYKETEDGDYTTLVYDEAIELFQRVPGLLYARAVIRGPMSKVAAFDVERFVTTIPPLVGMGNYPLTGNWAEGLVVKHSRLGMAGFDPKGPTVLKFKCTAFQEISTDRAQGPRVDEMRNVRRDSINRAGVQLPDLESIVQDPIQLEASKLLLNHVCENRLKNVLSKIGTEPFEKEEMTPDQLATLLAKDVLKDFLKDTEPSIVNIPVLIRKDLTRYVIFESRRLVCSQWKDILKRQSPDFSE"}, "[2]": {"target": "T3, A1 R731E;L2 RNA-editing ligase (full length, mature) (Trypanosoma brucei;Trypanosoma brucei, UniProt Q95W15;P86925 196-762;21-416, R731E|)", "T3 sequence 1": "T2 sequence 1 with R536E, E539R", "T3 sequence 2": "T2 sequence 2"}, "[3]": {"target": "T4, A1Δ (L23 deletion);L2 RNA-editing ligase (full length, mature) (Trypanosoma brucei;Trypanosoma brucei, UniProt Q95W15;P86925 196-657+=GASG+696-762;21-416, internal_change|)", "T4 sequence 1": "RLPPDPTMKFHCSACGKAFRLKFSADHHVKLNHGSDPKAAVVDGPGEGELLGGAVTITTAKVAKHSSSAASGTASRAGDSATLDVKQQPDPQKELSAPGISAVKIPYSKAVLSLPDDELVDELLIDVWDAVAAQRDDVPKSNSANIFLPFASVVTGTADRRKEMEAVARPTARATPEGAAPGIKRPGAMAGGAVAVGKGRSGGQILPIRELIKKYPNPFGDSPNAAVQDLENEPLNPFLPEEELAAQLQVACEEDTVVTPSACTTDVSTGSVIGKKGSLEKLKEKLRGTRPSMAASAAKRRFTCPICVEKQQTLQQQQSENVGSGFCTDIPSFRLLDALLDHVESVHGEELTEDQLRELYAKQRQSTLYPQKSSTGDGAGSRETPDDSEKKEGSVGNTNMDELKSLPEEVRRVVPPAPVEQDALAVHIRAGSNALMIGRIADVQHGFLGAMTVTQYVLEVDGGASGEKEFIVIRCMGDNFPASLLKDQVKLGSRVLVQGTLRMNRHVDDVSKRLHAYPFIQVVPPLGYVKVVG", "T4 sequence 2": "T2 sequence 2"}, "[4]": {"target": "T5, A1 R703E;L2 RNA-editing ligase (full length, mature) (Trypanosoma brucei;Trypanosoma brucei, UniProt Q95W15;P86925 196-762;21-416, R703E|)", "T5 sequence 1": "T2 sequence 1 with R508E, E539R", "T5 sequence 2": "T2 sequence 2"}, "[5]": {"target": "T6, A1 (full length, mature);L2 RNA-editing ligase (full length, mature) (Trypanosoma brucei;Trypanosoma brucei, UniProt Q95W15;P86925 196-762;21-416, |)", "T6 sequence 1": "T2 sequence 1 with E539R", "T6 sequence 2": "T2 sequence 2"}, "[6]": {"target": "T7, A1 (full length, mature);L2 A1BD (Trypanosoma brucei;Trypanosoma brucei, UniProt Q95W15;P86925 196-762;308-416, |)", "T7 sequence 1": "T2 sequence 1 with E539R", "T7 sequence 2": "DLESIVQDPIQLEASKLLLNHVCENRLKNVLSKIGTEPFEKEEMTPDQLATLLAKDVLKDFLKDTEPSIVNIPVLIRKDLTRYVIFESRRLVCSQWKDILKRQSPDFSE"}, "[7]": {"target": "T8, A1 L2BD;L2 RNA-editing ligase (full length, mature) (Trypanosoma brucei;Trypanosoma brucei, UniProt Q95W15;P86925 196-331;21-416, |)", "T8 sequence 1": "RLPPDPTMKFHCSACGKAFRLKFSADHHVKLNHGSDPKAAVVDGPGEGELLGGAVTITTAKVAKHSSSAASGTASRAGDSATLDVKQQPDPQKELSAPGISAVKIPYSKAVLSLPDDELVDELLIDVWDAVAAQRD", "T8 sequence 2": "T2 sequence 2"}}, "note": "Substitutions are numbered along the chain they refer to.", "data": [{"binder": "B1", "values": [{"measurement": "binding result", "setting": "L2 NTase domain", "value": "no binding"}, {"measurement": "binding result", "setting": "[1]", "value": "no binding"}, {"measurement": "binding result", "setting": "[2]", "value": "no binding"}, {"measurement": "binding result", "setting": "[3]", "value": "binds"}, {"measurement": "binding result", "setting": "[4]", "value": "no binding"}, {"measurement": "binding result", "setting": "[5]", "value": "binds"}, {"measurement": "binding result", "setting": "[6]", "value": "no binding"}, {"measurement": "binding result", "setting": "[7]", "value": "no binding"}]}]}
